Data published in patent US20240209086A1 (PETMEDIX, published 2024).
Positions count from the first letter of the chain named.

T1: canine CD20 on cells (HEK293, MDCK II, CLBL-1 or native B cells) (canine, UniProt Q3C2E2 1-297)
T1 construct: also called dCD20; cCD20
T1 chain: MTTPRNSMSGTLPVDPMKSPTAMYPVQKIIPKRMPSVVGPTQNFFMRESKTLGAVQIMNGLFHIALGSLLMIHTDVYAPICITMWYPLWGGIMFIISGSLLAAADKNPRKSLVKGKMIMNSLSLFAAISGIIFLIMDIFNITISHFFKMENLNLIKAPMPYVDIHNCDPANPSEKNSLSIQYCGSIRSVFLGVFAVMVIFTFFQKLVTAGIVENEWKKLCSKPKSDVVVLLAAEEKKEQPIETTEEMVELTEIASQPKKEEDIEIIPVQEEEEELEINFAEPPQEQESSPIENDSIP

B1: PMX191 (monospecific anti-canine CD3, canine IgG-B effector function deficient Fc) (antibody, V domains shown)
VH: EVQLVESGGDLVKPAGSLRLSCVASGFTFSDYSMSWVRQGPEKGLQLVAGMNSDGSTTYYTDAVRGRFTISRDNAKNTMYLQMNSLRDEDTAIYYCAKGAAAPDYWGQGTLVTVSS
VL: SYELTQPPSVNVTLRETAHITCGGDRIGSKYVQWIQQIPGQAPVVIIYKDNNRPTGIPERFSGANSGNTATLTISGALAEDEADYYCQVGDNYTWVFGEGTQLTVL
B2: PMX192 (monospecific anti-canine CD3, canine IgG-B effector function deficient Fc) (antibody, V domains shown)
VH: EVQLVESGGDLVKPAGSLRLSCVASGFTFSDYSMSWVRQAPEKGLQLVAGINGDGSTTYYTDAVKGRFTISRDNAKNTVYLQMNSLRAEDTAMYYCAKGAGTGDFWGQGTLVTVSS
VL: B1 VL with D25A, R26S, S29R, N51S, N92S, Y93G, T94A
B3: PMX227 (monospecific anti-canine CD20, canine IgG-B, lambda C5) (antibody, V domains shown)
VH: EMQLVESGGALVKPGGSLRLSCVASGFTFRRYHMSWVRQAPGQGLQWVAYIDSDGSPTSYGDSVKGRFTISRDNAKNTLFLQMNSLRVDDTAVYYCTTLDYWGRGTLVTVSS
VL: SYVLTQVPSKNVTLKQPAHITCGGDNIGGKSVHWYQQKLGQAPLLIIYYDTRRPTGIPERFSGANSGNTATLTISRALAEDEADYYCQVWDSSGNVFGGGTHLTVIG
B4: PMX228 (monospecific anti-canine CD20, canine IgG-B, lambda C5) (antibody, V domains shown)
VH: EVQLVQSGGDLVKPGGSLRLSCVASGYTFTRYHMSWVRQAPGKGLQWVAFINSDGTGITYGDAVKGRFTISRDNAKNTLYLQMNSLRAEDTAIYYCTTFDSWGQGTLVTVSS
VL: B3 VL with V7L, G29S, L44I, T51S, R76G, I106L
B5: PMX265 (monospecific anti-canine CD20, canine IgG-B, lambda C5) (antibody, V domains shown)
VH: B4 VH with T30S
VL: B3 VL with V7L, G29S, L44I, T51S, R76G, I106L
B6: PMX198 (monospecific anti-canine CD3, canine IgG-B effector function deficient Fc) (antibody, V domains shown)
VH: EFTLQESGPGLVKPSQTLSLTCIVSGGSVTSSYYWNWIRQRPGRGLEWMGYWTGSTNYNPAFQGRISITPDTAKNQFSLQLSSMTTEDTAVYYCAREGGSSLQAFGNWGQGTLVTVSS
VL: SYVLTQLPSKNVTLKQPAHITCGGDNIGRKSVHWYQQKLGQAPILIIYYDSSRPTGIPERFSGANSGNTATLTISGALAEDEADYYCQVWDSSAKASVFGGGTHLTVL
B7: PMX190 (monospecific anti-canine CD3, canine IgG-B effector function deficient Fc) (antibody)
heavy: EVQLVESGGDLVKPGGSLRLSCVASGFTFSSYQMSWVRQAPGKGLQWVAYISSGGGRTTYADAVRGRLTISRDNAKNTLYLQMNSLRAEDAAVYYCAREGGGEIYGYKDYGMDYWGHGTSLFVSSASTTAPSVFPLAPSCGSTSGSTVALACLVSGYFPEPVTVSWNSGSLTSGVHTFPSVLQSSGLYSLSSMVTVPSSRWPSETFTCNVAHPASKTKVDKPVPKRENGRVPRPPDCPKCPAPESLGGPSVFIFPPKPKDTLLIARTPEVTCVVVDLGREDPEVQISWFVDGKQMQTAKTQPREEQFNGTYRVVSVLPIGHQDWLKGKQFTCKVNHIGLPSPIERTISKARGQAHQPSVYVLPPSREELSKNTVSLTCLIKDFFPPDIDVEWQSNGQQEPESKYRTTPPQLDEDGSYFLYSKLSVDKSRWQRGDTFICAVMHEALHNHYTQKSLSHSPGK
VL: B6 VL with R29S, I44V, S97W, G101E, H104Q
B8: PMX200 (monospecific anti-canine CD3, canine IgG-B effector function deficient Fc) (antibody, V domains shown)
VH: ELTLQESGPGLVKPSQTLSLTCIVSGGSVTSSYYWNWIRQSPGRGLEWMGYWTGNTNYNPALQGRIFITADTAKNQFSLQLRSMTTEDTAVYYCARGGYGYHYGMDYWGHGTSVFVSS
VL: B6 VL with N11S, T13A, R29S, S31R, I44A, Y48S, Y49F, S51N, S93T, V98I
B9: PMX186 (monospecific anti-canine CD3, canine IgG-B effector function deficient Fc) (antibody)
heavy: EVKLVESGGDLVKPGGSLRLSCVASGVTFSRYYMSWVRQAPGKGLQWVAYINSGGSTTSYADAVKGRFTISRDNAKNTLYLQMNSLRAEDTAVYYCASEGVGEIYGYKDFGMDYWGHGTSLFVSSASTTAPSVFPLAPSCGSTSGSTVALACLVSGYFPEPVTVSWNSGSLTSGVHTFPSVLQSSGLYSLSSMVTVPSSRWPSETFTCNVAHPASKTKVDKPVPKRENGRVPRPPDCPKCPAPESLGGPSVFIFPPKPKDTLLIARTPEVTCVVVDLGREDPEVQISWFVDGKQMQTAKTQPREEQFNGTYRVVSVLPIGHQDWLKGKQFTCKVNHIGLPSPIERTISKARGQAHQPSVYVLPPSREELSKNTVSLTCLIKDFFPPDIDVEWQSNGQQEPESKYRTTPPQLDEDGSYFLYSKLSVDKSRWQRGDTFICAVMHEALHNHYTQKSLSHSPGK
VL: B6 VL with R29S, I44V, S52R, S97W, G101E, H104Q
B10: PMX185 (monospecific anti-canine CD3, canine IgG-B effector function deficient Fc) (antibody)
heavy: EVQLVESGGDLVKPGGSLRLSCVASGFTFSSYHMSWVRQAPGKGLQWVASINSGGSRTSYVDAVKGRFTISRDNAKKTLYLQMNSLRAEDTAVYYCASGRTGPKLGLGDYGMDSWGHGTSLFVSSASTTAPSVFPLAPSCGSTSGSTVALACLVSGYFPEPVTVSWNSGSLTSGVHTFPSVLQSSGLYSLSSMVTVPSSRWPSETFTCNVAHPASKTKVDKPVPKRENGRVPRPPDCPKCPAPESLGGPSVFIFPPKPKDTLLIARTPEVTCVVVDLGREDPEVQISWFVDGKQMQTAKTQPREEQFNGTYRVVSVLPIGHQDWLKGKQFTCKVNHIGLPSPIERTISKARGQAHQPSVYVLPPSREELSKNTVSLTCLIKDFFPPDIDVEWQSNGQQEPESKYRTTPPQLDEDGSYFLYSKLSVDKSRWQRGDTFICAVMHEALHNHYTQKSLSHSPGK
VL: B6 VL with R29S, I44V, L45M, S97W, G101E, H104Q

Experiments:
[1] = biological target: canine CD3 on canine T cells (canine PBMC) (canine, UniProt P27597 22-202); test: cell-based or functional assay
[2] = biological target: T1, canine CD20 on cells (HEK293, MDCK II, …); test: flow cytometry, canine CD20 HEK293 cells, 10 µg/ml, FITC anti-canine IgG
Procedure: A CD20 binding screen was performed on candidate proteins produced from the canine CD20 immunisation as described in Examples 2 and 3. CHO cells supernatants containing candidate antibodies were diluted to 10 μg/ml in FACS buffer (PBS containing 3% FBS) and screened for their ability to bind canine CD20 expressed on cell surface. In brief, 1-2×10⁵ canine CD20-expressing HEK cells were incubated with candidate mAbs for one hour at 4° C., at a fixed concentration of 10 μg/ml followed by incubation with 5 μg/ml of FITC-conjugated anti-canine IgG secondary antibody (Bethyl Laboratories) for 1 hour at 4° C. Cells incubated with anti-canine IgG FITC secondary antibody and without primary anti-canine CD20 antibody, or with isotype control primary antibody, were used as negative controls. The data were acquired on either a Beckman Coulter CytoFLEX or a BD Accuri C6 Plus flow cytometer and analysed using FlowJo software.

Sequence of canine CD3 on canine T cells (canine PBMC) (P27597 22-202 limits assumed, chain 1 of 3): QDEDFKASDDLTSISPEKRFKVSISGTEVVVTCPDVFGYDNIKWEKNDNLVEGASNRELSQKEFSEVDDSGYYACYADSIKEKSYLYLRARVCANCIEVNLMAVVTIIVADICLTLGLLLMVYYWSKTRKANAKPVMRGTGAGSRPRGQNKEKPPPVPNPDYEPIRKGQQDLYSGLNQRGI
Sequence of canine CD3 on canine T cells (canine PBMC) (chain, as listed by the source limits assumed, chain 2 of 3): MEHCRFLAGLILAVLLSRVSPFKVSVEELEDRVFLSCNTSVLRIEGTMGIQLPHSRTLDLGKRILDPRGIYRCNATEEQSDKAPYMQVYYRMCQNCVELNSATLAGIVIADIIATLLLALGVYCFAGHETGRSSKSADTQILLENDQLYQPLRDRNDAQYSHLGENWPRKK
Sequence of canine CD3 on canine T cells (canine PBMC) (chain, as listed by the source limits assumed, chain 3 of 3): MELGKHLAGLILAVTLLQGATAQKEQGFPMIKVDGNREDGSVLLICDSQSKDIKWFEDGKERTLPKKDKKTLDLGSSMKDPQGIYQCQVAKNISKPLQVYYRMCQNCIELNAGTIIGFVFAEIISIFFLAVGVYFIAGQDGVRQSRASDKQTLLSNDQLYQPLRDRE

Binder	CD25 Activation, Day 6, IS [1]	CD25 Activation, Day 6, PB [1]	CD25 Activation, Day 9, IS [1]	CD25 Activation, Day 9, PB [1]	IFNy Concentration pg/ml, Day 6, IS [1]	IFNy Concentration pg/ml, Day 9, IS [1]	IFNy Concentration pg/ml, Day 9, PB [1]	Ki67 Proliferation, Day 6, IS [1]	Ki67 Proliferation, Day 6, PB [1]	Ki67 Proliferation, Day 9, IS [1]	Ki67 Proliferation, Day 9, PB [1]	binding result [2]
B1	8.97	10.5	14.2	14.9	31.9 pg/mL	370 pg/mL	744 pg/mL	0.66	0.35	2.89	0.6	–
B2	10.4	12.7	10.3	11.3	75.9 pg/mL	210 pg/mL	758 pg/mL	1.29	0.66	3.65	1.56	–
B3	–	–	–	–	–	–	–	–	–	–	–	binds
B4	–	–	–	–	–	–	–	–	–	–	–	binds
B5	–	–	–	–	–	–	–	–	–	–	–	binds
B6	11.3	26.8	10.4	25.5	82.8 pg/mL	191 pg/mL	2790 pg/mL	0.87	0.61	4.37	0	–
B7	11.3	14.8	13.5	11.8	54.4 pg/mL	384 pg/mL	699 pg/mL	0.73	0.98	0.9	2.73	–
B8	8.83	19.5	13.1	15	59.6 pg/mL	363 pg/mL	822 pg/mL	0.76	2.92	1.29	0.78	–
B9	10.5	20	10.9	17.6	27.7 pg/mL	217 pg/mL	1220 pg/mL	2.63	0.2	1.09	0.74	–
B10	14.7	11.9	10.3	13.9	86.7 pg/mL	217 pg/mL	166 pg/mL	0.93	0.85	2.65	0.39	–
